The source of these data is patent publication US20230312722A1 (NONA BIOSCIENCES SUZHOU, published 2023).

Substitutions are numbered along the chain they refer to.

Assay [1] has as its target T1, human B7H4 on the cell surface (human, UniProt Q7Z7D3 25-282).
T1 construct: whole, on cells; also called CHOK1/hu B7H4; B7H4 on SK-BR-3
T1 sequence (looked up): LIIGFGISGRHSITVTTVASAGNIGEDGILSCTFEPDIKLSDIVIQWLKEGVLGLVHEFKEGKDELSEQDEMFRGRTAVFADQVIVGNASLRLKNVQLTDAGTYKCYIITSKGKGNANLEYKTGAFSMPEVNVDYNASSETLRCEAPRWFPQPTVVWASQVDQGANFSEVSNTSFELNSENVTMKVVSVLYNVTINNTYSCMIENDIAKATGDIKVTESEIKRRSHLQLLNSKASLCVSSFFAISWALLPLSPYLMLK
Briefly: FACS, CHOK1/hu B7H4 cells. The protocol:
(§1) This example is intended to investigate the in vitro binding activity of anti-human B7H4 H2L2 monoclonal antibody to human/cynomolgus monkey/mouse B7H4. Antibody binding experiments at the cellular level were performed using CHOK1 cell line overexpressing human B7H4 (CHOK1/hu B7H4, Harbour BioMed), CHOK1 cell line overexpressing cynomolgus monkey B7H4 (CHOK1/cyno B7H4, Harbour BioMed), CHOK1 cell line overexpressing mouse B7H4 (CHOK1/m B7H4, Harbour BioMed) and SK-BR-3 cell line (ATCC® HTB-30) highly expressing human B7H4. Briefly, CHOK1/hu B7H4 cells, CHOK1/cyno B7H4 cells, CHOK1/m B7H4 cells or SK-BR-3 cells were digested and resuspended with PBS containing 2% BSA. The cell density was adjusted to 1×10⁶ cells/mL. The cells were seeded in a 96-well V-bottom plate (Corning, #3894) at 100 μL/well, followed by the addition of test antibodies diluted in a 3-fold concentration gradient of 2 times the final concentration, each at 100 μL/well. The cells were incubated at 4° C. for 2 h away from light. Thereafter, the cells in each well were rinsed twice with 100 μL of pre-cooled PBS containing 2% BSA, and centrifuged at 500 g at 4° C. for 5 min, and then the supernatant was discarded. Then 100 μL of a fluorescent secondary antibody (Alexa Fluor 488-conjugated AffiniPure Goat Anti-Human IgG, Fcγ Fragment Specific, Jackson, #109-545-098, 1:500 diluted) was added to each well. The plate was incubated away from light at 4° C. for 1 h. The cells in each well were washed twice with 100 μL of pre-cooled PBS containing 2% BSA, and centrifuged at 500 g at 4° C. for 5 minutes, and then the supernatant was discarded. Finally, the cells in each well were resuspended with 200 μL of pre-cooled PBS containing 2% BSA, and the fluorescence signal values were read using an ACEA Novocyte3000 flow cytometer.
(Flow cytometry measures light scatter and fluorescence of single cells or particles in a stream.)

Assay [2] concerns the target T2, cynomolgus monkey B7H4 on the cell surface (cynomolgus monkey, UniProt A0A2K5U6P5 25-282).
T2 construct: whole, on cells; also called CHOK1/cyno B7H4
T2 sequence: T1 sequence (looked up) with L53I, F242L, S252A
Briefly: FACS, CHOK1/cyno B7H4 cells. Here is the method:
as §1

In assay [3] the target is T1, human B7H4 on the cell surface. As to the kind of experiment: FACS on MDA-MB-468 cells.
For assay [4] the target is unchanged. Briefly: FACS on MDA-MB-468 cells; in the drawn table the number stands under the head 'Maximum MFI' (the two heads are interchanged); the head says nM, the axis of the curve µg/mL.

B1: Control antibody 1 (PR000157) (antibody, V domains shown)
VH: EVQLVQSGAEVKKPGASVKVSCKASGYTFTSYWIGWVRQAPGQGLEWIGDIYPGGGYTNYNEKFKGRVTITRDTSTSTAYLELSSLRSEDTAVYYCARLAGSSYRGAMDSWGQGTLVTVSS
VL: DIQMTQSPSSLSASVGDRVTITCKASQGFNKYVAWYQQKPGKAPKLLIYYTSTLQPGVPSRFSGSGSGRDYTLTISSLQPEDFATYYCLQYGDLLYAFGQGTKVEIKR
notes: Anti-B7H4 IgG1 control antibody from WO2016040724A1; also called 1D11.v1.9varC2
The term EC50 denotes the concentration at which the effect is half-maximal. The EC50 (read off the curve) is the concentration at which the effect is half-maximal. Regarding B1, the 50% effective concentration (EC50) in assay [1] stood at 1.94 nM; in assay [2], 2.06 nM; in assay [4] it was 0.194 nM. Further, the “Maximum MFI” value amounted to 1.84e+06 MFI in assay [1] and 1.32e+06 MFI in assay [2]. Further, the “EC50 (read off the curve)” value in assay [3] is approximately 0.2 µg/mL.
